Experimental data published in patent US20250340646A1 (ELPIS BIOPHARMACEUTICALS, published 2025).
Where two headings read alike, the source gives them in different places.

Columns and labels:
[1] = target: PD-L1 on PD-L1 aAPC/CHOK1 cells (Promega J1250); assay: cell-based or functional assay
[2] = target: PD-L1 on PD-L1 aAPC/CHOK1 cells (Promega J1250); assay: cell-based or functional assay; remark: listed apart in the source
[3] = target: PD-L1 on PD-L1 aAPC/CHOK1 cells (Promega J1250); assay: cell-based or functional assay; remark: listed apart in the source
[4] = target: T1, PD-L1 biotinylated (PD-1/PD-L1 TR-FRET assay kit, BPS 72038) (Homo sapiens (Human), UniProt Q9NZQ7 19-238, biotinylated; site not stated); assay: HTRF competition, competitor PD-1-Eu
T1 construct: Kit reagent
Experimental: (§1) Briefly, 1× Immuno buffer 1 was made. […] For each well in 384-well plate, serial diluted scFvs and regents were added according to manufacturer's recommended volume. Samples were incubated at room temperature for 1.5 hours then the fluorescent intensity was read with Biotek Neo2 plate reader using manufacture's instrument setting for the assay.

[5] = target: T1, PD-L1 biotinylated (PD-1/PD-L1 TR-FRET …); assay: HTRF competition, competitor PD-1-Eu; remark: listed apart in the source
Experimental: as §1

[6] = target: T1, PD-L1 biotinylated (PD-1/PD-L1 TR-FRET …); assay: HTRF competition, competitor PD-1-Eu; remark: listed apart in the source
Experimental: as §1

[7] = target: T2, human PD-L1-HIS tagged recombinant protein (human, UniProt Q9NZQ7 19-238); assay: ELISA, coated PD-L1-HIS, anti-hFc HRP
T2 construct: also called hPD-L1-HIS; PD-L1 HIS tagged protein
Experimental: The plate was incubated overnight at 4° C. followed by blocking with 80 μL of superblock per well for 1 hour. […] In between each step, the plate was washed 3 times with 1×PBST in a plate washer. The plate was then developed with 20 μL of TMB substrate for 5 min and stopped by adding 20 μL of 2N sulfuric acid. The plate was read at OD450 nm Biotek plate reader and then plotted in Prism 8.1 software.

[8] = target: T2, human PD-L1-HIS tagged recombinant …; assay: SPR, IgG on Protein A, PD-L1-HIS analyte
Experimental: The assay was run with Biacore T200 control software version 2.0. For each cycle, 1 μg/mL of anti-hPD-L1-IgG was captured for 60 seconds at flow rate of 10 μl/min on flow cell 2 in 1×HBSP buffer on Protein A sensor chip. […] The flow cells were then regenerated with Glycine pH 2 for 60 seconds at flow rate of 30 μl/min. […] The specific binding response unit was derived from subtraction of binding to reference flow cell 1 from antibody captured flow cell 2.

[9] = target: T2, human PD-L1-HIS tagged recombinant …; assay: SPR, Protein A capture, PD-L1-HIS analyte
[10] = target: T3, full-length human PD-L1 on K562 cells (human, UniProt Q9NZQ7 19-290); assay: FACS, PD-L1/K562 cells, anti-hFc Alexa Fluor 647
T3 construct: also called PD-L1/K562; cell surface human PD-L1
Experimental: Cells were spun down at 1200 rpm for 5 minutes at 4° C. to remove primary antibodies. Cells were then washed once with 200 μL of full medium per well. […] Samples were spun down at 1200 rpm for 5 minutes at 4° C. and washed twice with 200 μL of 1×PBS per well. Reconstituted samples in 200 μL of 1×PBS and read on Attune NxT cytometer.

biotinylated PD-L1 [11] = target: T4, biotinylated PD-L1 (Homo sapiens (Human), UniProt Q9NZQ7 19-238, biotinylated; site not stated); assay: ELISA, anti-human Fc capture, biotinylated PD-L1
Experimental: A 384 well plate was immobilized with anti-human Fc at final concentration of 2 μg/mL in 1×PBS in total volume of 25 μL per well. The plate was incubated overnight at 4° C. followed by blocking with 80 μL of superblock per well for 1 hour. […] In between each step, the plate was washed 3 times with 1×PBST in a plate washer. […] The plate was read at OD450 nm Biotek plate reader and the binding correlation was plotted with Prism 8.1 software.

biotinylated PD-L1 [12] = target: T4, biotinylated PD-L1; assay: ELISA as described in Example 7 (value equals Table 17)
[13] = target: T5, recombinant His-tagged human IL-2Rα (human, UniProt P01589 22-213, limits assumed); assay: ELISA, coated His-tagged human IL-2Rα, OD 450 nm
T5 construct: also called IL-2Rα-HIS; CD25
T5 sequence (looked up): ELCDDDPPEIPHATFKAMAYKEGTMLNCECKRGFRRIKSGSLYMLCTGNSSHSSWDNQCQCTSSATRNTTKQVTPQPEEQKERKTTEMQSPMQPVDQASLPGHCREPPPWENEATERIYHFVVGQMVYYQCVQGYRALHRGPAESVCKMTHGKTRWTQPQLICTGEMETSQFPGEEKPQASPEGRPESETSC
Experimental: (§2) For monovalent IL-2 Fc-fusion proteins, recombinant His-tagged human IL-2Rα and IL-2Rβ were added in 25 μL of 1×PBS to wells of 384-well plate and incubated overnight at 4° C. to coat the plates. Plates were washed three times with 0.05% Tween20/1×PBS. Plates were blocked with 100 μL of SuperBlock for 1 hr at RT and then washed 3 times with 0.05% Tween20/1×PBS. IL-2 mutants were diluted in 0.05% Tween 20/1×PBS from 1000 nM to 0 nM and added to plates for 2 hrs at room temperature. Plates were then washed 6 times with 0.05% Tween20/1×PBS. Anti-HisTag-HRP was diluted 1:5000 in 0.05% Tween20/1×PBS and added to plates for 1 hr at RT. Plates were then washed 6 times with 0.05% Tween 20/1×PBS, and TMB was added to develop blue color. Reactions were stopped with 2N […] and light absorbance at 450 nm was read on a BioTek plate reader. Absorbance versus IL-2 concentration is graphed for human IL-2Rα and IL-2Rβ.

[14] = target: T6, recombinant His-tagged human IL-2Rβ (human, UniProt P14784 27-240, limits assumed); assay: ELISA, coated His-tagged human IL-2Rβ, OD 450 nm
T6 construct: also called IL-2Rβ-HIS; IL-15Rβ-HIS
T6 sequence (looked up): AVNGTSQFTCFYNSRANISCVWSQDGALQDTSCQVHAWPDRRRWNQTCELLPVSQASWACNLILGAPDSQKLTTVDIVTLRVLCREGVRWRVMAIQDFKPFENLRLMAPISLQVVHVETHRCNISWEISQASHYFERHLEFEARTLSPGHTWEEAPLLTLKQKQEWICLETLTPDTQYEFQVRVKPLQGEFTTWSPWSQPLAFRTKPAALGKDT
Experimental: as §2

Jurkat Reporter assay EC50 [1]: 0.55 nM
NFAT reporter EC50 [2]: 0.549 nM
NFAT reporter EC50 [3]: 0.549 nM
IC50 [4]: 128 nM
IC50 [5]: 128 nM
IC50 [6]: 128 nM
EC50 [7]: 0.164 nM
Kd [8]: 0.363 nM
Kd [9]: 0.363 nM
koff [9]: 0.000347 s⁻¹
kon [9]: 956000 M⁻¹ s⁻¹
EC50 [10]: 6.68 pM
EC50 (biotinylated PD-L1 [11]): 0.26 nM
EC50 (biotinylated PD-L1 [12]): 0.164 nM
B1: anti-PD-L1 IgG1 antibody EP205/EP206 (2019EP69-F03) (antibody, V domains shown)
VH: QVQLVQSGAEVKKPGSSVKVSCKASGGTFSSYAISWVRQAPGQGLEWMGGIIPIFGTANYAQKFQGRVTITADESTSTAYMELSSLRSEDTAVYYCARDKWYGSAWRGDYWGQGTLVTVSS
VL: QSVLTQPPSASGTPGQRVTISCSGSYSNIGSNFVNWYQQLPGTAPKLLIHFNNQRPSGVPDRFSGSRSGTSASLAISGLQSEDEADYFCSTWDDSLKGPIFGGGTKLTVLG
notes: also called EP206/EP205
binding result [13]: no binding (tested: LOG(IL-2(nM)) about 1.8 (about 70 nM))
binding result [14]: no binding (tested: LOG(IL-2(nM)) about 1.8 (about 70 nM))
